This experiment addresses RanQ69L(aa1-180)–GTP (UniProt P62826 1-180, Q69L). Nature of the experiment: pull-down.

B1: His–Xpo 4 (exportin 4, Mus musculus) (natural protein)
chain: not shown
Turning to B1, the binding result is “binds”.

The values are drawn from paper PMC8131929 (The Journal of Biological Chemistry, 2021).
